Assay results published in US6936690 (Takeda / Millennium, dated 2005).

Legend:
[1] = target: T1, Myc-tagged CARD-14 (full-length CARD-14 with C-terminal Myc epitopes, pCMV-Tag 5A) (human, UniProt Q9BXL6 1-1004); assay: co-localization by immunofluorescence in Rat-1 cells
T1 construct: Expressed in 293T cells (co-immunoprecipitation, Bcl-10 phosphorylation) and Rat-1 cells (co-localization)
T1 sequence: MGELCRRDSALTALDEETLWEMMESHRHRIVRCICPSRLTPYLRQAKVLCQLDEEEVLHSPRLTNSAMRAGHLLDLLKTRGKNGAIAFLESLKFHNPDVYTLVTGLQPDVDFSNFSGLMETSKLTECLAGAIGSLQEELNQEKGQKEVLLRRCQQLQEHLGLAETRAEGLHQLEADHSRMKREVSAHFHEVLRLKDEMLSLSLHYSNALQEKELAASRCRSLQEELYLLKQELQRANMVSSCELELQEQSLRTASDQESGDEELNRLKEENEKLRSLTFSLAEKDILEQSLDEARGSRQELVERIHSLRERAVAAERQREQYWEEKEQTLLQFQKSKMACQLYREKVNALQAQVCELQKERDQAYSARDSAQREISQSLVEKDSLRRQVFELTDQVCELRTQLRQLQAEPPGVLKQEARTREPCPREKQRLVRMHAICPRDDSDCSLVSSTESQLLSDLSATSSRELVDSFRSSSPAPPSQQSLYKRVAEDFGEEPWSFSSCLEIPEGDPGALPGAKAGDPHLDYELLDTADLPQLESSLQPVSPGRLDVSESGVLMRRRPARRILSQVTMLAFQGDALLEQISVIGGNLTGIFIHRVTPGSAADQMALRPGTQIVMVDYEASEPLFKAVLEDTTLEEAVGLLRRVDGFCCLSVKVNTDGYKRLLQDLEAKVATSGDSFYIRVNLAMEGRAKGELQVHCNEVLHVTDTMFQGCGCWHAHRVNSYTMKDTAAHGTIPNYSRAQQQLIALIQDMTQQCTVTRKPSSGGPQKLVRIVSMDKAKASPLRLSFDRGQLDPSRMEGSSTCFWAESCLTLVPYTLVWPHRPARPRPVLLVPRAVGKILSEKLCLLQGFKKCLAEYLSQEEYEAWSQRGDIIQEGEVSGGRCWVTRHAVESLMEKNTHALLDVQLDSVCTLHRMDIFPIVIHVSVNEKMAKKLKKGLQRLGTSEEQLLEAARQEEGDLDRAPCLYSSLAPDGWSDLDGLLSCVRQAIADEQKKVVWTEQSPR
Description: To further confirm the interaction between CARD-14 and Bcl-10, co-localization experiments were performed with full-length CARD-14. In these studies, Rat-1 cells were transfected in PDL-coated glass chamber slides (BioCoat, Becton-Dickinson Labware) with plasmids expressing HA-tagged Bcl10 and Myc-tagged CARD-14 using FuGENE-6 (Roche Molecular Biochemicals) for 20 hours. Cells were fixed in 4% paraformaldehyde, permeabilized and blocked in buffer containing 0.4% Triton X-100, and sequentially incubated with primary and secondary antibodies: rabbit anti-HA polyclonal Y-11 (Santa Cruz Biotechnology), mouse anti-Myc monoclonal 9E10 (Oncogene Research Products), Alexa-488 Goat anti-mouse IgG (Molecular Probes) and Alexa-594 Goat anti-rabbit IgG (Molecular Probes). No cross-reactivity was observed between any of the antibodies. Images were acquired using a Nikon T200 microscope with a 60× oil objective and an Orca100 digital camera (Hammamatsu, Inc.) driven by MetaMorph software (Universal Imaging Corp.). Final images were prepared using Adobe PhotoShop.

[2] = target: T2, CARD-14 protein labeled with 35S-methionine (human, UniProt Q9BXL6 1-1004, limits assumed, labeled with 35S-methionine); assay: GST pull-down on glutathione-sepharose, autoradiography
T2 construct: also called radiolabeled CARD-14
T2 sequence: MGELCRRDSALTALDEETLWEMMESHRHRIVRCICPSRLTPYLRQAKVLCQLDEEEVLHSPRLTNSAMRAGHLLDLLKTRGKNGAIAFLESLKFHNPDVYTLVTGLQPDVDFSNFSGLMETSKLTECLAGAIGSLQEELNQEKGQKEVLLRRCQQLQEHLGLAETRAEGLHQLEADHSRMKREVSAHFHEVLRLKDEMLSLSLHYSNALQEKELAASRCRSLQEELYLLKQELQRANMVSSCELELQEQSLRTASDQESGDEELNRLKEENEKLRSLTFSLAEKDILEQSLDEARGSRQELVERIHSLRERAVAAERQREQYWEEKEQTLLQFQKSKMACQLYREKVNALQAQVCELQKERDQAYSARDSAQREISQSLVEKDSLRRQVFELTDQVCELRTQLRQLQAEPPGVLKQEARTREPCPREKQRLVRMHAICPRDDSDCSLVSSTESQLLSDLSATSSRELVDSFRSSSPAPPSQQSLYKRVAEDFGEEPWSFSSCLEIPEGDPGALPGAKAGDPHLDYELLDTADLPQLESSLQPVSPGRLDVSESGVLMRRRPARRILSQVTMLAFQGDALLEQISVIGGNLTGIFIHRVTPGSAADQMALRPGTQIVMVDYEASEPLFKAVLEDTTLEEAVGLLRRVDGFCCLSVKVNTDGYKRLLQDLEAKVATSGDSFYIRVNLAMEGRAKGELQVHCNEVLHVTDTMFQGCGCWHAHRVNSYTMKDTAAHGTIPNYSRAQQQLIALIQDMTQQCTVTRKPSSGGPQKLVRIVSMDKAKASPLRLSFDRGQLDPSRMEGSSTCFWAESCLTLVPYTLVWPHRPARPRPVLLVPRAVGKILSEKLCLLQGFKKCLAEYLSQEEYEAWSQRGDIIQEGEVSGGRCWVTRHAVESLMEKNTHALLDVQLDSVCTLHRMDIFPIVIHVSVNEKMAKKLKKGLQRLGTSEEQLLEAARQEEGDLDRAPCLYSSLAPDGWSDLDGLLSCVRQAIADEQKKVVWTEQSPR
Description: The interaction of radiolabeled CARD-14 with GST-Bcl-10 in vitro was also examined. Bcl-10 wild type and L41R mutant were expressed in DH5 alpha bacteria as GST fusion proteins and equal amounts of protein were immobilized on glutathione-sepharose (Amersham-Pharmacia). An equal amount of CARD-14 protein, labeled with ^35S-methionine, was incubated with the protein bound sepharose beads in 100 μl of binding buffer (50 mM Tris-Cl pH 7.6, 120 mM NaCl, 0.5% Brij and protease inhibitors) for three hours. The beads were washed four times with the same buffer and boiled in SDS sample buffer. The proteins were then resolved on a 10% SDS gel and visualized by autoradiography.

Row | Binder | binding result [1] | binding result [2]
1 | HA-tagged Bcl10 (other, UniProt O95999 1-233, looked up, not shown: small tags and cut ends, Expressed in Rat-1 cells (co-localization) and 293T cells (phosphorylation); also called HA-Bcl-10) MEPTAPSLTEEDLTEVKKDALENLRVYLCEKIIAERHFDHLRAKKILSREDTEEISCRTSSRKRAGKLLDYLQENPKGLDTLVESIRREKTQNFLIQKITDEVLKLRNIKLEHLKGLKCSSCEPFPDGATNNLSRSNSDESNFSEKLRASTVMYHPEGESSTTPFFSTNSSLNLPVLEVGRTENTIFSSTTLPRPGDPGAPPLPPDLQLEEEGTCANSSEMFLPLRSRTVSRQ | binds | –
2 | GST-Bcl-10 L41R mutant (other, UniProt O95999 1-233, looked up, Expressed in DH5 alpha bacteria and immobilized on glutathione-sepharose; also called variant of Bcl-10 with a point mutation (L41R); not shown: GST fusion partner) MEPTAPSLTEEDLTEVKKDALENLRVYLCEKIIAERHFDHRRAKKILSREDTEEISCRTSSRKRAGKLLDYLQENPKGLDTLVESIRREKTQNFLIQKITDEVLKLRNIKLEHLKGLKCSSCEPFPDGATNNLSRSNSDESNFSEKLRASTVMYHPEGESSTTPFFSTNSSLNLPVLEVGRTENTIFSSTTLPRPGDPGAPPLPPDLQLEEEGTCANSSEMFLPLRSRTVSRQ | – | no binding
